doi:10.1101/2024.03.29.587195 (bioRxiv, 2024)
Values joined by “and” are separate entries in the source; they are usually repeats but may differ in a detail not shown here. Equal values may be shown once.

Target: the molecule itself
Assay: cryo-EM structure

B1: CoaXMtb, untagged, recombinant (cryo-EM sample) (natural protein)
chain: MLLAIDVRNTHTVVGLLSGMKEHAKVVQQWRIRTESEVTADELALTIDGLIGEDSERLTGTAALSTVPSVLHEVRIMLDQYWPSVPHVLIEPGVRTGIPLLVDNPKEVGADRIVNCLAAYDRFRKAAIVVDFGSSICVDVVSAKGEFLGGAIAPGVQVSSDAAAARSAALRRVELARPRSVVGKNTVECMQAGAVFGFAGLVDGLVGRIREDVSGFSVDHDVAIVATGHTAPLLLPELHTVDHYDQHLTLQGLRLVFERNLEVQRGRLKTAR
stoichiometry N: 6 and 4
